This is an account of results in paper PMC4192513, “A Novel Protein-Protein Interaction in the RES (REtention and Splicing) Complex*” (The Journal of Biological Chemistry, 2014).

Assay [1] deals with T1, Snu17p (residues 1-113) (S. cerevisiae, UniProt P40565 1-113).
T1 construct: 15N- or 15N/13C-labelled for NMR; also called Snu17p RRM with N-terminal unstructured extension; source: E. coli BL21(DE3) pLysS, purified (Ni-NTA, TEV cleavage, second Ni-NTA, SEC Superdex 75); not shown: His6, N-terminal, cleaved; GST, N-terminal, cleaved
T1 sequence (looked up): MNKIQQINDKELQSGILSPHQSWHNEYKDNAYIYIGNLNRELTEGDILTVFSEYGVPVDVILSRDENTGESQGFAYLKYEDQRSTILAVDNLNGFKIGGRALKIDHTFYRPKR
Description: NMR titration; 1H,15N correlation (HSQC) spectra of 15N-labelled Snu17p (residues 1-113) on addition of Bud13p peptides; 298 K; 20 mM sodium phosphate pH 6.3, 25 mM NaCl, 2 mM DTT or TCEP. As to conditions: both partners purified.

The target of assay [2] is T1, Snu17p (residues 1-113). Description: ITC; VP-ITC, 25 °C, NMR buffer (20 mM sodium phosphate pH 6.3, 25 mM NaCl, 2 mM DTT or TCEP); Snu17p (residues 1-113) 30-70 uM in the cell, Bud13p ligands 0.6-1.1 mM in the syringe; one- or two-step binding models. As to conditions: both partners purified. Background: ITC needs no label: the signal is the heat of the interaction.

B1: Bud13p (residues 201-266) (domain or fragment)
chain: not shown
notes: also called 66-mer Bud13p peptide; very long Bud13p peptide; source: E. coli BL21(DE3) pLysS, purified (Ni-NTA, TEV cleavage, second Ni-NTA, SEC Superdex 75); not shown: His6, N-terminal, cleaved; GST, N-terminal, cleaved
B1: the binding result with Snu17p (residues 1-113) [1] is given as “binds”.

B2: Bud13p peptide (residues 221-242) (peptide, UniProt P46947 221-242, looked up)
peptide: ENRFAIMPGSRWDGVHRSNGFE
notes: Bud13p, S. cerevisiae, residues 221-242; also called 22-mer Bud13p peptide; shorter Bud13p peptide; source: synthetic peptide, bought: Peptide Specialty Laboratories (Heidelberg), dialyzed
On to B2, for which, in the assay with Snu17p (residues 1-113) [2], the “fold weaker dissociation constant than the longer Bud13p ligands” value worked out at 50 fold.
